Experiments:
Assay in all cases: ELISA
Conditions in all cases: both partners purified
[1] = target: T1, SHC014 prefusion-stabilized spike (S2P) (Bat SARS-like coronavirus RsSHC014 …, UniProt U5WLK5, stabilised)
T1 construct: also called SHC014 S2P

[2] = target: T2, WIV1 prefusion-stabilized spike (S2P) (Bat SARS-like coronavirus WIV1 …, UniProt U5WI05, stabilised)
T2 construct: also called WIV1 S2P

[3] = target: T3, SARS-CoV prefusion-stabilized spike (S2P) (SARS-CoV Urbani (AAP13441.1), UniProt P59594, stabilised)
T3 construct: also called SARS-CoV S2P

[4] = target: T4, RaTG13 prefusion-stabilized spike (S2P) (Bat coronavirus RaTG13 (GenBank …, UniProt A0ABF7PLN6, stabilised))
T4 construct: also called RaTG13 S2P

[5] = target: T5, MERS-CoV prefusion-stabilized spike (S2P) (MERS-CoV EMC/2012 (GenBank AFS88936), UniProt K0BRG7, stabilised)
T5 construct: also called MERS-CoV S2P

Measured: binding result

B1: antibody WS6 (IgG) (antibody, V domains shown)
VH: EVQFQQSGTVLARPGASVKMSCKASGYTFTNYWIHWVKQRPGQGLEYIGGTYPGNGDTTYNQKFKGKAKVTAVTPTSTAYMDLSSLTNEDSAVYYCTRTGSYFDYWGQGTTLTVSS
VL: QIVLTQSPAIMSASPGEKVTISCSATSSVSYIYWYQQRPGSSPKPWIYRTSNLASGVPVRFSGSGSGTSYSLTISNMEAEDAATYYCQQYQSYPPTFGAGTKLELK
notes: also called mAb WS6
binds: all assays above

Source: doi:10.1101/2022.01.25.477770 (bioRxiv, 2022)
